Consider two molecules from article PMC5777638 (Nature, 2018).

To fix the notation:
T1: RNA polymerase III subunit C128 (Saccharomyces cerevisiae, UniProt P22276 1-1149)
T1 sequence (looked up): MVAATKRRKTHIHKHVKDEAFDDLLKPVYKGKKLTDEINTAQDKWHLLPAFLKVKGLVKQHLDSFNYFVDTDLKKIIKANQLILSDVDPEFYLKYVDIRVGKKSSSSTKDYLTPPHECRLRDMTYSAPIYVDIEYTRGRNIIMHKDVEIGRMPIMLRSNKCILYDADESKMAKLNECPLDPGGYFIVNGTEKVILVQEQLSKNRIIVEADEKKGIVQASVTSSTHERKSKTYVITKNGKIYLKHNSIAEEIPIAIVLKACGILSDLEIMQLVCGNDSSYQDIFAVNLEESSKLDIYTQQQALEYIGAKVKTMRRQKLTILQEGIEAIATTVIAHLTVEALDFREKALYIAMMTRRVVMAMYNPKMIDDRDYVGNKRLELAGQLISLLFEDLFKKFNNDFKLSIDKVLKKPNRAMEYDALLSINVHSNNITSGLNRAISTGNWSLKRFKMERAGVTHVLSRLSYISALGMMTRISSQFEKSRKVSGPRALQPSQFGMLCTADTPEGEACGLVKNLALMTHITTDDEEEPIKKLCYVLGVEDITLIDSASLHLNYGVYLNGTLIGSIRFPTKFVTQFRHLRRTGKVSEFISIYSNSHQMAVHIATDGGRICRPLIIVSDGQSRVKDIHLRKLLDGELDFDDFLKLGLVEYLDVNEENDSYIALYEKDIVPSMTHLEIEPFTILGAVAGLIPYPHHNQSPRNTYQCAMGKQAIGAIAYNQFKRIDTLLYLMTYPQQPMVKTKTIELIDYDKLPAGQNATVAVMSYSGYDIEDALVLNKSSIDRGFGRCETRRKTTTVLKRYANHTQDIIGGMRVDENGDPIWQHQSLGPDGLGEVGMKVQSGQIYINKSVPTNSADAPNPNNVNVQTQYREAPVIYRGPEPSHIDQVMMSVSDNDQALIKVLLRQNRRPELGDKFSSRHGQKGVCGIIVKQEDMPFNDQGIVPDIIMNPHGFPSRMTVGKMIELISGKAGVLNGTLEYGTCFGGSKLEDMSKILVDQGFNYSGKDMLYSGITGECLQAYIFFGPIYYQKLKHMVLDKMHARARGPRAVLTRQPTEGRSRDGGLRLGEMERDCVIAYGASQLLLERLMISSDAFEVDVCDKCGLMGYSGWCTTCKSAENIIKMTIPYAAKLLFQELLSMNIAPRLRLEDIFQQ

B1: RNA polymerase III subunit C37 (natural protein, Saccharomyces cerevisiae, UniProt P36121 1-282, looked up)
chain: MSIDNKLFVTEEDEEDRTQDRADVEDESNDIDMIADENGTNSAIANEQEEKSEEVKAEDDTGEEEEDDPVIEEFPLKISGEEESLHVFQYANRPRLVGRKPAEHPFISAARYKPKSHLWEIDIPLDEQAFYNKDKAESEWNGVNVQTLKGVGVENNGQYAAFVKDMQVYLVPIERVAQLKPFFKYIDDANVTRKQEDARRNPNPSSQRAQVVTMSVKSVNDPSQNRLTGSLLAHKVADEEANIELTWAEGTFEQFKDTIVKEAEDKTLVALEKQEDYIDNLV
B2: RNA polymerase III subunit C34 (natural protein, Saccharomyces cerevisiae, UniProt P32910 1-317, looked up)
chain: MSGMIENGLQLSDNAKTLHSQMMSKGIGALFTQQELQKQMGIGSLTDLMSIVQELLDKNLIKLVKQNDELKFQGVLESEAQKKATMSAEEALVYSYIEASGREGIWSKTIKARTNLHQHVVLKCLKSLESQRYVKSVKSVKFPTRKIYMLYSLQPSVDITGGPWFTDGELDIEFINSLLTIVWRFISENTFPNGFKNFENGPKKNVFYAPNVKNYSTTQEILEFITAAQVANVELTPSNIRSLCEVLVYDDKLEKVTHDCYRVTLESILQMNQGEGEPEAGNKALEDEEEFSIFNYFKMFPASKHDKEVVYFDEWTI

The target in experiment [1] is B2. The experiment in a line: cryo-EM structure.
The target in experiment [2] is T1, RNA polymerase III subunit C128. The experiment can be described thus: cryo-EM structure.

For B1, in experiment [1], the binding result was “binds”.
As for B2, in experiment [2], the binding result was “binds”.
